T1: GST-Sec23 (yeast, UniProt P15303 1-768)
T1 sequence (looked up): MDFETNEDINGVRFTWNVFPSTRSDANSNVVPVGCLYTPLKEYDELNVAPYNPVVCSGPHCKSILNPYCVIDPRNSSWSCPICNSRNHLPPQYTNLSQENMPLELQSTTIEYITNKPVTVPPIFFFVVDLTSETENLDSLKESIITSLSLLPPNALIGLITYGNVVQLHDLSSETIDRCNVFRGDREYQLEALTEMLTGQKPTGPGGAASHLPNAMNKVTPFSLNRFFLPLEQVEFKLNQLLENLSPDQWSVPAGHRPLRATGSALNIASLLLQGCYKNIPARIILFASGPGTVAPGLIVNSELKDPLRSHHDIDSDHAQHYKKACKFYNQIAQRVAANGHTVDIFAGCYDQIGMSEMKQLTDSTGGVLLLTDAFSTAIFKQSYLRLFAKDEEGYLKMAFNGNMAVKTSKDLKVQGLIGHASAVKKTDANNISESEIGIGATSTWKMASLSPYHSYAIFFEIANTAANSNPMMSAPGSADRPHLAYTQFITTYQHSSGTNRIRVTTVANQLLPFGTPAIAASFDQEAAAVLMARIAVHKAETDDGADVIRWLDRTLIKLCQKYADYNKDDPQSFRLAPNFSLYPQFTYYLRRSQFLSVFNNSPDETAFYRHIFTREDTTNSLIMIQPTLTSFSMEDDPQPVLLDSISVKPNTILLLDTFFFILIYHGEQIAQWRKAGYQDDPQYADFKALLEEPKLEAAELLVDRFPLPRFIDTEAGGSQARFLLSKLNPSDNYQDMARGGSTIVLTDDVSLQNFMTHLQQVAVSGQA

T2: GST-Sec24 (yeast, UniProt P40482 1-926)
T2 sequence (looked up): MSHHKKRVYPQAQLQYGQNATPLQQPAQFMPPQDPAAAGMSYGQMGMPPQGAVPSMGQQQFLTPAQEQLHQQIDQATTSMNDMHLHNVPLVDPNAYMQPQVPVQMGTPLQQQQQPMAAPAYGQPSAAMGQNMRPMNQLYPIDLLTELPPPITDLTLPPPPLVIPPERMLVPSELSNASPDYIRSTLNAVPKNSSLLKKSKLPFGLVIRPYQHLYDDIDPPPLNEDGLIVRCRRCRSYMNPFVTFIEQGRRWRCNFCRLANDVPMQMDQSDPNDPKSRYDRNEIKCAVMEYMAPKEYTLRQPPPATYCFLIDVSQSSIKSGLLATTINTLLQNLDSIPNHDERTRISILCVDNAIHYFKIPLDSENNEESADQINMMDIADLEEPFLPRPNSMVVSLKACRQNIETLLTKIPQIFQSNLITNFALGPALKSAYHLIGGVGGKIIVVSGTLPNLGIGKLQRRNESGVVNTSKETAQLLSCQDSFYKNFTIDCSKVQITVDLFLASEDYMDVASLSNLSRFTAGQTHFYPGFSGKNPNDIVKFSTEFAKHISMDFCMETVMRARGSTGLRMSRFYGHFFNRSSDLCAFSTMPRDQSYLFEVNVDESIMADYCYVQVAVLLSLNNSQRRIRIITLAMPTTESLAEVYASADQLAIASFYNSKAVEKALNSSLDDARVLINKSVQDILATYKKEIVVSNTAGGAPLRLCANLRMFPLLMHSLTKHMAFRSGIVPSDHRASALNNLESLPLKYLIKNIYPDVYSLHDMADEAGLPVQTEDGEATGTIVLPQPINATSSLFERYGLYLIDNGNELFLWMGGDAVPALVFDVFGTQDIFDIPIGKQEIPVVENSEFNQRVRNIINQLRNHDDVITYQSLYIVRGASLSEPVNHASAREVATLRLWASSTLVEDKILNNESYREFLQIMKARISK

T3: His6-Sec31 (aa 1–500) (yeast, UniProt P38968 1-500)
T3 sequence (looked up): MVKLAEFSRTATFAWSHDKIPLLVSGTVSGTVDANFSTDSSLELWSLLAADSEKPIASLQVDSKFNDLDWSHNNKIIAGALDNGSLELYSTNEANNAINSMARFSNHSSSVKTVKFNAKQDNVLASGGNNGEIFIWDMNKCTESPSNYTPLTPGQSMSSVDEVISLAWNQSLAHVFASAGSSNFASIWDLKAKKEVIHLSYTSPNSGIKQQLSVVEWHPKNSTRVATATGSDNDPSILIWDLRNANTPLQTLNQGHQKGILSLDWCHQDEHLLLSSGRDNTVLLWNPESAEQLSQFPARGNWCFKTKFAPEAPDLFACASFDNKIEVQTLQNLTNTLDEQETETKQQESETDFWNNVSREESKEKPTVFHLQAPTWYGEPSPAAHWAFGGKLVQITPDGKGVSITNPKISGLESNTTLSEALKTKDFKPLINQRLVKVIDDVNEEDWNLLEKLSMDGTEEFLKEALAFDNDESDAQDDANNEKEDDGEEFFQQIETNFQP

B1: His6-auxilin (natural protein, yeast, UniProt Q06677 1-668, looked up)
chain: MSDPFAHLLTSLKNKDSASASKETTPQSSNSPSITGSAVADVARTDKSPNDSLHSISAPPLIPSPKVDFSAPPLVPTNSTTKSNTANNTPPSALANTDDDFNQLFGMGTVTTTDTIQKPDEDYYGSKEDHLYNGDDALVDEVKDMEIARLMSLGLSIEEATEFYENDVTYERYLEILKSKQKERNDLAIRKKESGIKMEKSGLSNIVGTDSNNLFSMATDFFNKGKKLVDQWTSFPPEANDRLNNYSKTHDKVEDYDLPQVNDSPNRILFEDNEVVENLPPADNPDQDLLTDFETKIDITKRTAPDVSHSSSPTSGILIEENSRRNEPLIEDSLLDFSEGNLTNSKSNEDSTLFNENSNTDSTIPISDIELSGYNEFKAKGTSLFKNGDYINSLQEYEKSLNTLPLNHPLRIIALSNIIASQLKIGEYSKSIENSSMALELFPSSKAKWKNKISNSDPERSFNDIWPKIMIRRAESFEHLESFKKALETYQELIKKNFFDDKIMQGKRRCQDFINPPPVKKSMPVKKKTTTTSPATKKQNLTASSSNSPISVDSTSEIKKRELENAKLALYDKVFEKISSWKDGKDDDIRHLLANLSSLLTWCNWKDVSMQDLVMPKRVKITYMKAVAKTHPDKIPESLSLENKMIAENIFSTLSIAWDKFKLQNDIN
B2: GST-auxilin-TPR domain (aa 363–561) (domain or fragment, yeast, UniProt Q06677 363-561, looked up)
chain: TIPISDIELSGYNEFKAKGTSLFKNGDYINSLQEYEKSLNTLPLNHPLRIIALSNIIASQLKIGEYSKSIENSSMALELFPSSKAKWKNKISNSDPERSFNDIWPKIMIRRAESFEHLESFKKALETYQELIKKNFFDDKIMQGKRRCQDFINPPPVKKSMPVKKKTTTTSPATKKQNLTASSSNSPISVDSTSEIKKR

Tests used:
Assay in all cases: pull-down
GST-Sec23 = biological target: T1, GST-Sec23
GST-Sec24 = biological target: T2, GST-Sec24
His6-Sec31 (aa 1–500) = biological target: T3, His6-Sec31 (aa 1–500)

Row | Binder | binding result (GST-Sec23) | binding result (GST-Sec24) | binding result (His6-Sec31 (aa 1–500))
1 | B1 | binds | binds | –
2 | B2 | – | – | binds

Source: publication PMC4694752 (Molecular Biology of the Cell, 2016)
